Measurements: the supplement of paper PMC5998384

Experiments:
HeLa Kyoto [1] = test: solubility change mitosis vs G1/S (difference of NP-40 vs SDS log2 ratios) (log2 ratio difference); higher = more soluble in mitosis
HeLa Kyoto [2] = test: thermal stability score vs G1/S (z-score of summed log2 fold changes over temperatures); higher = more thermally stable than in G1/S
HeLa Kyoto [3] = test: melting temperature (median over replicates), in situ; higher = more thermally stable
HeLa Kyoto [4] = test: solubility in G1/S (NP-40 vs SDS abundance) (log2 ratio); higher = more soluble; conditions: cell cycle stage: G1/S
[5] = cell cycle stage: early G1 (4.5 h after nocodazole release)
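For melting temperature (median over replicates), in situ in this document: HeLa Kyoto cells synchronized by double thymidine or nocodazole block, proteins quantified by TMT10plex mass spectrometry, three independent biological replicates.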
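For solubility change mitosis vs G1/S (difference of NP-40 vs SDS log2 ratios) in this document: synchronized HeLa Kyoto cells (double thymidine block for G1/S, nocodazole release for mitosis), protein amounts in NP-40 versus SDS lysates quantified by mass spectrometry, three biological replicates.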
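For solubility in G1/S (NP-40 vs SDS abundance) in this document: HeLa Kyoto cells arrested at G1/S by double thymidine block, proteins quantified by TMT10plex mass spectrometry in mild NP-40 versus SDS extracts, three biological replicates.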
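For thermal stability score vs G1/S (z-score of summed log2 fold changes over temperatures) in this document: synchronized HeLa Kyoto cells, proteins quantified by TMT10plex mass spectrometry, three biological replicates, mitosis taken 0.5 h after nocodazole release, G1/S directly after double thymidine block.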

For “MLMLFVFGVLLHEVSLSGQNEAPPNTHSIPGEPLYNYASIRLPEEHIPFFLHNNRHIATVCRKDSLCPYKKHLEKLKYCWGYEKSCKPEFRFGYPVCSYVDMGWTDTLESAEDIFWKQADFGYARERLEEMHVLCQPKETSDSSLVCSRYLQYCRATNLYLDLRNIKRNHDRFKEDFFQSGEIGGHCKLDIRTLTSEGQRKSPLQSWFAELQSYTQLNFRPIEDAKCDIVIEKPTYFMKLDAGVNMYHHFCDFINLYITQHVNNSFSTDVYIVMWDTSSYGYGDLFSDTWNAFTDYDVIHLKTYDSKRVCFKEAVFSLLPRMRYGLFYNTPLISGCQNTGLFRAFAQHVLHRLNITQEGPKDGKIRVTILARSTEYRKILNQNELVNALKTVSTFEVQIVDYKYRELGFLDQLRITHNTDIFIGMHGAGLTHLLFLPDWAAVFELYNCEDERCYLDLARLRGVHYITWRRQNKVFPQDKGHHPTLGEHPKFTNYSFDVEEFMYLVLQAADHVLQHPKWPFKKKHDEL [EOGT]”, the “solubility change mitosis (log2)” value (HeLa Kyoto [1]) was -0.00851, the thermal stability score (HeLa Kyoto [2]; [5]) was 2.26 and the thermal stability score (HeLa Kyoto [2]; cell cycle stage: mitosis) was 3.42. The melting temperature (HeLa Kyoto [3]; cell cycle stage: G1/S) was 53.3 °C, the melting temperature (HeLa Kyoto [3]; cell cycle stage: mitosis) was 54.9 °C and the “solubility in G1/S (log2)” value (HeLa Kyoto [4]) was -0.298.
For “MDPQRSPLLEVKGNIELKRPLIKAPSQLPLSGSRLKRRPDQMEDGLEPEKKRTRGLGATTKITTSHPRVPSLTTVPQTQGQTTAQKVSKKTGPRCSTAIATGLKNQKPVPAVPVQKSGTSGVPPMAGGKKPSKRPAWDLKGQLCDLNAELKRCRERTQTLDQENQQLQDQLRDAQQQVKALGTERTTLEGHLAKVQAQAEQGQQELKNLRACVLELEERLSTQEGLVQELQKKQVELQEERRGLMSQLEEKERRLQTSEAALSSSQAEVASLRQETVAQAALLTEREERLHGLEMERRRLHNQLQELKGNIRVFCRVRPVLPGEPTPPPGLLLFPSGPGGPSDPPTRLSLSRSDERRGTLSGAPAPPTRHDFSFDRVFPPGSGQDEVFEEIAMLVQSALDGYPVCIFAYGQTGSGKTFTMEGGPGGDPQLEGLIPRALRHLFSVAQELSGQGWTYSFVASYVEIYNETVRDLLATGTRKGQGGECEIRRAGPGSEELTVTNARYVPVSCEKEVDALLHLARQNRAVARTAQNERSSRSHSVFQLQISGEHSSRGLQCGAPLSLVDLAGSERLDPGLALGPGERERLRETQAINSSLSTLGLVIMALSNKESHVPYRNSKLTYLLQNSLGGSAKMLMFVNISPLEENVSESLNSLRFASKVNQCVIGTAQANRK [KIFC1]”, the “solubility change mitosis (log2)” value (HeLa Kyoto [1]) was 0.12, the thermal stability score (HeLa Kyoto [2]; [5]) was 3.16 and the thermal stability score (HeLa Kyoto [2]; cell cycle stage: mitosis) was 4.4. For the same sequence, the melting temperature (HeLa Kyoto [3]; cell cycle stage: G1/S) was 47.4 °C, the melting temperature (HeLa Kyoto [3]; cell cycle stage: mitosis) was 48.8 °C and the “solubility in G1/S (log2)” value (HeLa Kyoto [4]) was 0.0107.
“MLWFQGAIPAAIATAKRSGAVFVVFVAGDDEQSTQMAASWEDDKVTEASSNSFVAIKIDTKSEACLQFSQIYPVVCVPSSFFIGDSGIPLEVIAGSVSADELVTRIHKVRQMHLLKSETSVANGSQSESSVSTPSASFEPNNTCENSQSRNAELCEIPPTSDTKSDTATGGESAGHATSSQEPSGCSDQRPAEDLNIRVERLTKKLEERREEKRKEEEQREIKKEIERRKTGKEMLDYKRKQEEELTKRMLEERNREKAEDRAARERIKQQIALDRAERAARFAKTKEEVEAAKAAALLAKQAEMEVKRESYARERSTVARIQFRLPDGSSFTNQFPSDAPLEEARQFAAQTVGNTYGNFSLATMFPRREFTKEDYKKKLLDLELAPSASVVLLPAGRPTASIVHSSSGDIWTLLGTVLYPFLAIWRLISNFLFSNPPPTQTSVRVTSSEPPNPASSSKSEKREPVRKRVLEKRGDDFKKEGKIYRLRTQDDGEDENNTWNGNSTQQM [UBXN4]” was tested, and the “solubility change mitosis (log2)” value (HeLa Kyoto [1]) was -0.108, the thermal stability score (HeLa Kyoto [2]; [5]) was -0.0363 and the thermal stability score (HeLa Kyoto [2]; cell cycle stage: mitosis) was 0.462. For the same sequence, the melting temperature (HeLa Kyoto [3]; cell cycle stage: G1/S) was 51.8 °C, the melting temperature (HeLa Kyoto [3]; cell cycle stage: mitosis) was 52.1 °C and the “solubility in G1/S (log2)” value (HeLa Kyoto [4]) was -0.0609.
In the case of “MSERCCSRYSSGASIGCTPTSTQAKMVSKRIAQETFDAAVRENIEEFAMGPEEAVKEAVEQFESQGVDLSNIVKTAPKVSADGSQEPTHDILQMLSDLQESVASSRPQEVSAYLTRFCDQCKQDKACRFLAAQKGAYPIIFTAWKLATAGDQGLLLQSLNALSVLTDGQPDLLDAQGLQLLVATLTQNADEADLTCSGIRCVRHACLKHEQNRQDLVKAGVLPLLTGAITHHGHHTDVVREACWALRVMTFDDDIRVPFGHAHNHAKMIVQENKGLKVLIEATKAFLDNPGILSELCGTLSRLAIRNEFCQEVVDLGGLSILVSLLADCNDHQMRDQSGVQELVKQVLSTLRAIAGNDDVKDAIVRAGGTESIVAAMTQHLTSPQVCEQSCAALCFLALRKPDNSRIIVEGGGAVAALQAMKAHPQKAGVQKQACMLIRNLVAHGQAFSKPILDLGAEALIMQARSAHRDCEDVAKAALRDLGCHVELRELWTGQRGNLAP [ARMC6]”, the “solubility change mitosis (log2)” value (HeLa Kyoto [1]) is reported as -0.0993, the thermal stability score (HeLa Kyoto [2]; [5]) is reported as 0.787 and the thermal stability score (HeLa Kyoto [2]; cell cycle stage: mitosis) is reported as 2.44. The melting temperature (HeLa Kyoto [3]; cell cycle stage: G1/S) was 46.8 °C, the melting temperature (HeLa Kyoto [3]; cell cycle stage: mitosis) was 47 °C and the “solubility in G1/S (log2)” value (HeLa Kyoto [4]) was 0.319.
In the case of “MWAVLRLALRPCARASPAGPRAYHGDSVASLGTQPDLGSALYQENYKQMKALVNQLHERVEHIKLGGGEKARALHISRGKLLPRERIDNLIDPGSPFLELSQFAGYQLYDNEEVPGGGIITGIGRVSGVECMIIANDATVKGGAYYPVTVKKQLRAQEIAMQNRLPCIYLVDSGGAYLPRQADVFPDRDHFGRTFYNQAIMSSKNIAQIAVVMGSCTAGGAYVPAMADENIIVRKQGTIFLAGPPLVKAATGEEVSAEDLGGADLHCRKSGVSDHWALDDHHALHLTRKVVRNLNYQKKLDVTIEPSEEPLFPADELYGIVGANLKRSFDVREVIARIVDGSRFTEFKAFYGDTLVTGFARIFGYPVGIVGNNGVLFSESAKKGTHFVQLCCQRNIPLLFLQNITGFMVGREYEAEGIAKDGAKMVAAVACAQVPKITLIIGGSYGAGNYGMCGRAYSPRFLYIWPNARISVMGGEQAANVLATITKDQRAREGKQFSSADEAALKEPIIKKFEEEGNPYYSSARVWDDGIIDPADTRLVLGLSFSAALNAPIEKTDFGIFRM [MCCC2]”, the “solubility change mitosis (log2)” value (HeLa Kyoto [1]) is reported as -0.128, the thermal stability score (HeLa Kyoto [2]; [5]) is reported as -3.15 and the thermal stability score (HeLa Kyoto [2]; cell cycle stage: mitosis) is reported as -2.72. For the same sequence, the melting temperature (HeLa Kyoto [3]; cell cycle stage: G1/S) was 53.2 °C, the melting temperature (HeLa Kyoto [3]; cell cycle stage: mitosis) was 53.7 °C and the “solubility in G1/S (log2)” value (HeLa Kyoto [4]) was 0.0208.
“MGGPRGAGWVAAGLLLGAGACYCIYRLTRGRRRGDRELGIRSSKSAGALEEGTSEGQLCGRSARPQTGGTWESQWSKTSQPEDLTDGSYDDVLNAEQLQKLLYLLESTEDPVIIERALITLGNNAAFSVNQAIIRELGGIPIVANKINHSNQSIKEKALNALNNLSVNVENQIKIKIYISQVCEDVFSGPLNSAVQLAGLTLLTNMTVTNDHQHMLHSYITDLFQVLLTGNGNTKVQVLKLLLNLSENPAMTEGLLRAQVDSSFLSLYDSHVAKEILLRVLTLFQNIKNCLKIEGHLAVQPTFTEGSLFFLLHGEECAQKIRALVDHHDAEVKEKVVTIIPKI [ARMC10]” was tested, and the “solubility change mitosis (log2)” value (HeLa Kyoto [1]) was -0.108, the thermal stability score (HeLa Kyoto [2]; [5]) was 0.978 and the thermal stability score (HeLa Kyoto [2]; cell cycle stage: mitosis) was 1.04. For the same sequence, the melting temperature (HeLa Kyoto [3]; cell cycle stage: G1/S) was 50.8 °C, the melting temperature (HeLa Kyoto [3]; cell cycle stage: mitosis) was 49.7 °C and the “solubility in G1/S (log2)” value (HeLa Kyoto [4]) was 0.226.
